Data: PMC4188077

Molecular target: SeMet-substituted C. elegans ZYG-1 cryptic polo-box (CPB) domain (residues 338-564) (C. elegans)
Assay: SEC-MALS

**Q.** “SeMet-substituted C. elegans ZYG-1 cryptic polo-box (CPB) domain (residues 338-564) (domain or fragment)” was tested. Which stoichiometry N did it give?
**A.** Its stoichiometry N is 2.
